Data reported in patent US10604566B2, “Antagonists of IL-17C for the treatment and/or prevention of atopic dermatitis” (MORPHOSYS AG, priority 2015, dated 2020).

T1: murine IL-17C (Mus musculus, UniProt Q8K4C5)
T1 sequence (Q8K4C5 17-194): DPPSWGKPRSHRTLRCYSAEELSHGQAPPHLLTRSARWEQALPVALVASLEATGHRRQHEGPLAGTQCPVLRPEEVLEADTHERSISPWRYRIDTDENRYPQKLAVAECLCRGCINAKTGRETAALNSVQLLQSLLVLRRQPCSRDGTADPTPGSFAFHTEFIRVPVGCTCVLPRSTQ

T2: human IL-17C (Homo sapiens, UniProt Q9P0M4)
T2 sequence (Q9P0M4 19-197): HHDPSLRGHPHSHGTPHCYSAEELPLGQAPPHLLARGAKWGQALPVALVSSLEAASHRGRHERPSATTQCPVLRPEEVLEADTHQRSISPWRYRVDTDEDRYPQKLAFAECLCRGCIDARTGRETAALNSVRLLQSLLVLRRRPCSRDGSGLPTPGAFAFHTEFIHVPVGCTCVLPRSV

B1: MOR12743: anti-IL-17C antibody, binds murine IL-17C; VH SEQ ID No.: 11, VL SEQ ID No.: 10; disclosed in WO 2013/057241 (antibody, V domains shown)
VH: QVQLVQSGAEVKKPGASVKVSCKASGYTFTSNFIHWVRQAPGQGLEWMGWISPYNGDTNYAQKFQGRVTMTRDTSISTAYMELSRLRSEDTAVYYCARESVYYGSDYGYNGMDIWGQGTLVTVSS
VL: DIELTQPPSVSVSPGQTASITCSGDNLGEEYVSWYQQKPGQAPVLVIYDDTKRPSGIPERFSGSNSGNTATLTISGTQAEDEADYYCASWDLWSVEVFGGGTKLTVLGQ
modifications: mab Library
B2: MOR22420: anti-IL-17C antibody, binds human IL-17C; VH SEQ ID No.: 21, VL SEQ ID No.: 20 (antibody, V domains shown)
VH: QVQLVQSGAEVKKPGSSVKVSCKASGGTFSSYAISWVRQAPGQGLEWMGTIDPFFGKTYYAQKFQGRVTITADESTSTAYMELSSLRSEDTAVYYCARDVSSISYYFHEYYSDRFDYWGQGTLVTVSS
VL: DIALTQPASVSGSPGQSITISCTGTSSDVGGYEYVNWYQQHPGKAPKLMIYDDSYRPSGVSNRFSGSKSGNTASLTISGLQAEDEADYYCQSTDPHSTVVFGGGTKLTVLGQ
modifications: mab Library

Key:
murine IL-17C = molecular target: T1, murine IL-17C; assay: Binding to murine IL-17C and inhibition of IL-17C binding to IL-17RE
Method: (§1) The following working examples were performed using the antibodies MOR12743 and MOR22420 (see Table 1). […] Therefore both antibodies are antagonists of IL-17C in the sense of the present disclosure. MOR12743 is already disclosed and characterized in WO 2013/057241 (U.S. Ser. No. 14/351,162), which is incorporated by reference in its entirety.

MC903-treated mice = assay: MC903 mouse model of atopic dermatitis; format: in vivo, BALB/c mice; conditions: 3x10 mg/kg i.p.
Source text: The pro-inflammatory function of IL-17C in atopic dermatitis was examined in a non-infectious cutaneous inflammation mouse model of atopic dermatitis where topical application of the low-calcemic vitamin D3 analogue MC903 (calcipotriol) induces atopic dermatitis like skin lesion characterized by a red and scaly skin, accompanied by an epidermal hyperplasia and dermal infiltration of various cell types as well as an increase of Th2 cytokine in skin and elevated serum IgE (Li et al., 2006; Li et al, 2009). The MC903 mouse model is a widely accepted and predictable model to mimic the Th2 driven symptoms of atopic dermatitis in vivo.
BALB/c mice (female, 8-week old) were obtained from Janvier Labs (France). Mice were kept on a 12 hours light/dark cycle (0700-1900). Temperature was maintained at 22° C., and food and water were provided ad libitum.
In order to induce an AD-like response, 2 nmol MC903 (Tocris, dissolved in ethanol) was topical applied in a volume of 20 μL on both ears of mice for 5 consecutive days. A non-disease control group received the same quantity of ethanol (EtOH).
The severity of skin inflammation (erythema and thickening) was observed daily. Ear thickness was measured with an electronic caliper (Mitutoyo). Inflammation was further assessed using an in vivo imaging technique. To that end, Prosense 680 probe (1.6 nmol, Perkin Elmer) was administered by intraperitoneal route 24 hours before imaging. Imaging was performed with the Bruker In-vivo Xtreme Imaging System. Images were captured by a deeply cooled 4MP CCD camera (f-stop 1.1, binning 2×2, 5 sec acquisition time, Ex 630 nm, Em 700 nm). For anatomical co-registration, a reflectance image was taken (f-stop 2.8, 0.175 sec acquisition time). All images were taken with a 190×190 field of view and images were analysed using Molecular Imaging Software version 7.1 (Bruker Biospin, Billerica, Mass., USA). For each group, the mean values and standard error of mean (sem) was calculated using for each mouse the mean value of left and right ear.
At sacrifice, samples form ear skin were collected and fixed in 4% formaldehyde before embedding in paraffin. 4 μm-thick slices were stained with hematoxylin and eosin (H&E stain) for histomorphometric evaluation of epidermal thickness by image analysis with Sisn'Com software (France). Five fields per ear (high power field ×20) covering the whole ear from top to bottom were measured, and the 5 values were averaged per ear and per mice (left/right ear). An additional set of tissue slices were prepared for IHC staining of IL-17C using the anti-IL-17C biotinylated MOR12743 antibody (and biotinylated MOR03207 isotype negative control antibody). Processing and staining was essentially done as described above.
Ear skin samples were also taken for analysis of cytokine expression using qPCR or ELISA. […] Ear skin sam pies for quantification at protein level were immediately snap frozen in liquid N2 and stored at −80° C. […] 5 μL of 10-fold diluted cDNA was used in real-time quantitative PCR reactions using SYBR Green technology with gene-specific primers from Qiagen. qPCR was performed on the ViiA™ 7 Real-Time PCR System (Applied Biosystems). Gene expression was normalized to the expression of 3 different house-keeping genes (cyclophilin, b-actin and GAPDH) and expressed as relative mRNA level of specific gene expression as obtained using the 2^−ΔCt method, with ΔCt=Ctgene−Geomean Ct-value (housekeeping genes). […]

human IL-17C = molecular target: T2, human IL-17C; assay: Binding to human IL-17C and inhibition of IL-17C binding to IL-17RE
Method: as §1

Molecule	inhibition of binding of IL-17C to its receptor IL-17RE (murine IL-17C)	specific binding to IL-17C (murine IL-17C)	ear inflammation as assessed by in vivo imaging (MC903-treated mice; day 5, Prosense 680 probe, FIG. 6)	ear redness (MC903-treated mice; day 8, vs MC903+MOR03207 isotype control)	ear swelling (ear thickness) (MC903-treated mice; day 8, vs MC903+MOR03207 isotype control, FIG. 5)	epidermal hyperplasia (epidermal thickness) (MC903-treated mice; histology H&E at sacrifice, FIG. 7)	TSLP expression in ears (MC903-treated mice; protein, ELISA, FIG. 8)	inhibition of binding of IL-17C to its receptor IL-17RE (human IL-17C)	specific binding to IL-17C (human IL-17C)
B1	inhibit binding of IL-17C to its receptor IL-17RE	specifically bind	significantly reduced	less red	significantly less swollen	partially reduced	significantly inhibited		
B2								inhibit binding of IL-17C to its receptor IL-17RE	specifically bind
